Measured values reported in patent publication US20170183413A1 (CELLECTIS, published 2017).

T1: CD123-Fc protein (fusion of the extracellular domain of the human CD123 protein with a murine IgG1 Fc … (human; mouse, UniProt P26951 19-305)
T1 construct: extracellular domain; also called fusion protein; not shown: murine IgG1 Fc fragment
T1 sequence (looked up): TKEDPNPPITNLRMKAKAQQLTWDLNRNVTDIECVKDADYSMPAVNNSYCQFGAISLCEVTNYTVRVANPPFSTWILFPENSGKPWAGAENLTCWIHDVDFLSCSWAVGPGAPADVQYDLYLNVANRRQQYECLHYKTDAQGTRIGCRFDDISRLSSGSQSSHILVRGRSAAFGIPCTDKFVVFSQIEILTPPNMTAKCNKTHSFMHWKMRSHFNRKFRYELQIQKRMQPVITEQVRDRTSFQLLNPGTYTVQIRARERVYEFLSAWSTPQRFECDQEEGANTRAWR

B1: Klon43-v3 CAR (Klo43-3, anti-CD123 chimeric antigen receptor, structure V-3: Klon43 scFv, CD8alpha hinge, CD8alpha transmembrane domain, 41BB intracellular … (other)
chain: EVKLVESGGGLVQPGGSLSLSCAASGFTFTDYYMSWVRQPPGKALEWLALIRSKADGYTTEYSASVKGRFTLSRDDSQSILYLQMNALRPEDSATYYCARDAAYYSYYSPEGAMDYWGQGTSVTVSSGGGGSGGGGSGGGGSMADYKDIVMTQSHKFMSTSVGDRVNITCKASQNVDSAVAWYQQKPGQSPKALIYSASYRYSGVPDRFTGRGSGTDFTLTISSVQAEDLAVYYCQQYYSTPWTFGGGTKLEIKRTTTPAPRPPTPAPTIASQPLSLRPEACRPAAGGAVHTRGLDFACDIYIWAPLAGTCGVLLLSLVITLYCKRGRKKLLYIFKQPFMRPVQTTQEEDGCSCRFPEEEEGGCELRVKFSRSADAPAYQQGQNQLYNELNLGRREEYDVLDKRRGRDPEMGGKPRRKNPQEGLYNELQKDKMAEAYSEIGMKGERRRGKGHDGLYQGLSTATKDTYDALHMQALPPR
notes: Chimeric antigen receptor on the surface of human T cells (mRNA transfection or lentiviral transduction); 44; In the lentiviral vector the CAR is coupled to BFP through a 2A peptide; also called CAR Klon 43 V3; Klon43 CAR
B2: 32716-v3 CAR (32716-3, anti-CD123 chimeric antigen receptor, structure V-3: 32716 scFv, CD8alpha hinge, CD8alpha transmembrane domain, 41BB intracellular … (other)
chain: QIQLVQSGPELKKPGETVKISCKASGYIFTNYGMNWVKQAPGKSFKWMGWINTYTGESTYSADFKGRFAFSLETSASTAYLHINDLKNEDTATYFCARSGGYDPMDYWGQGTSVTVSSGGGGSGGGGSGGGGSDIVLTQSPASLAVSLGQRATISCRASESVDNYGNTFMHWYQQKPGQPPKLLIYRASNLESGIPARFSGSGSRTDFTLTINPVEADDVATYYCQQSNEDPPTFGAGTKLELKTTTPAPRPPTPAPTIASQPLSLRPEACRPAAGGAVHTRGLDFACDIYIWAPLAGTCGVLLLSLVITLYCKRGRKKLLYIFKQPFMRPVQTTQEEDGCSCRFPEEEEGGCELRVKFSRSADAPAYQQGQNQLYNELNLGRREEYDVLDKRRGRDPEMGGKPRRKNPQEGLYNELQKDKMAEAYSEIGMKGERRRGKGHDGLYQGLSTATKDTYDALHMQALPPR
notes: Chimeric antigen receptor on the surface of human T cells; 38; In the lentiviral vector the CAR is coupled to BFP through a 2A peptide; also called CAR 32716V3

Molecular target: T1, CD123-Fc protein (fusion of the …)
Experiment: flow cytometry on transduced T-cells, CD123-Fc fusion protein detected with PE-conjugated anti-mouse Fc
Experimental: Transduction of T-cells with recombinant lentiviral vectors expression the CAR was carried out three days after T-cell purification/activation. Lentiviral vectors were produced by Vectalys SA (Toulouse, France) by transfection of genomic and helper plasmids in HEK-293 cells. Transductions were carried out at a multiplicity of infection of 5, using 10⁶ cells per transduction. CAR detection at the surface of T-cells was done using a recombinant protein consisting on the fusion of the extracellular domain of the human CD123 protein together with a murine IgG1 Fc fragment (produced by LakePharma). Binding of this protein to the CAR molecule was detected with a PE-conjugated secondary antibody (Jackson Immunoresearch) targeting the mouse Fc portion of the protein, and analyzed by flow cytometry. […]
CAR detection was done using a fusion protein in which the extracellular domain of the human CD123 protein was fused to a mouse IgG1 derived Fc fragment. Binding of the CAR at the cell surface with the CD123 portion of the fusion protein was detected with anti-Fc PE-conjugated antibody and analyzed by flow cytometry. FIG. 9 represents the % of CAR+ or of Blue fluorescent protein (BFP+) cells (measured by FACS analysis) at Day 8 or 10 post transduction for two different donors.

Binder	binding result
B1	binds
B2	binds
